Measurements reported in patent publication US20030194404A1 (SCHERING, published 2003).

How the values were obtained:
[1] = biological target: T1, recombinant human IL-5 (human, UniProt P05113 20-134); experiment: cell-based or functional assay
T1 sequence (looked up): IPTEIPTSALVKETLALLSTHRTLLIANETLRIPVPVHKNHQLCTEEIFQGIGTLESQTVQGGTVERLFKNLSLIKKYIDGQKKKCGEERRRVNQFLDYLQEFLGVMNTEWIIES

[2] = biological target: T2, murine IL-5 (murine, UniProt P04401 21-133); experiment: cell-based or functional assay
T2 sequence (looked up): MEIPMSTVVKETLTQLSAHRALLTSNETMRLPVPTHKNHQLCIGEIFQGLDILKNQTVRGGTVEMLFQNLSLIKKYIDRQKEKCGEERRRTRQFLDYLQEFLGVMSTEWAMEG

[3] = biological target: T1, recombinant human IL-5; experiment: KinExA 3000 kinetic exclusion assay, Dual Curve (Unknown Antigen) method
Procedure: (§1) The KinExA uses the principle of the Kinetic Exclusion Assay method based on measuring the concentration of uncomplexed antibody in a mixture of antibody, antigen and antibody-antigen complex. The concentration of free antibody is measured by exposing the mixture to a solid-phase immobilized antigen for a very brief period of time. In practice, this is accomplished by flowing the solution phase antigen-antibody mixture past antigen coated particles trapped in a flow cell. Data, generated by the instrument are analyzed using custom software. Equilibrium constants are calculated using a mathematical theory based on the following assumptions:
(§2) All experimental procedures were performed according to the KinExA 3000™ Manual. All runs were done in duplicate.
(§3) The antibody molecular weight used for calculation was 150 Kda.

[4] = biological target: T1, recombinant human IL-5; experiment: KinExA 3000 kinetic exclusion assay, Dual Curve analysis (Standard mode), 0.1 and 0.01 nM antibody
Procedure: as §1, §2, §3

B1: human monoclonal antibody 20.13.3 (antibody, human IgG4, kappa, V domains shown)
VH: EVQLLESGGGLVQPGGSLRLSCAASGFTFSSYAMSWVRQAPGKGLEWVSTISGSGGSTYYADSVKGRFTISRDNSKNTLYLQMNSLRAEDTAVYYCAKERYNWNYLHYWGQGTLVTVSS
VL: DIQMTQSPSSLSASVGDRVTITCQASQDIINYLNWYQQKPGKAPKLLIYSASNLETRVPSRFSGSGSGTDFTFTISSLQPEDIATYYCQQYDNHPLTFGGGTKVEIRR
**Q.** Which “IC50, TF-1 anti-proliferation assay” value [1] does the source give for B1 here?
**A.** Its value is 0.25 nM.

**Q.** What about the “IC50, TF-1 anti-proliferation assay” value [2] of the same binder?
**A.** Its value is 0.38 nM.

**Q.** What about the Kd [3] of the same binder?
**A.** The Kd was 0.0195 nM.

**Q.** What about the Kd [4] of the same binder?
**A.** The Kd was 0.015 nM.
